{"source": "patent US20150216961A1", "about": "(MEDICAGO, published 2015)", "binders": {"B1": {"name": "VP6 from Rotavirus A WA strain (other)", "chain": "MEVLYSLSKTLKDARDKIVEGTLYSNVSDLIQQFNQMIVTMNGNDFQTGGIGNLPVRNWTFDFGLLGTTLLNLDANYVENARTIIEYFIDFIDNVCMDEMARESQRNGVAPQSEALRKLAGIKFKRINFDNSSEYIENWNLQNRRQRTGFVFHKPNIFPYSASFTLNRSQPMHDNLMGTMWLNAGSEIQVAGFDYSCAINAPANIQQFEHIVQLRRALTTATITLLPDAERFSFPRVINSADGATTWFFNPVILRPNNVEVEFLLNGQIINTYQARFGTIIARNFDAIRLLFQLMRPPNMTPAVNALFPQAQPFQHHATVGLTLRIESAVCESVLADANETLLANVTAVRQEYAIPVGPVFPPGMNWTELITNYSPSREDNLQRVFTVASIRSMLIK", "notes": "Expressed in N. benthamiana from construct 1713 and purified as part of rotavirus-like particles; also called RVA(WA) VP6; VP6(opt)"}}, "biological_target": "T1, VP2 from Rotavirus A WA strain (Rotavirus A WA strain, UniProt P11231 1-890)", "T1 construct": "Expressed in N. benthamiana from construct 1710 and purified as part of rotavirus-like particles; also called RVA(WA) VP2; VP2(opt)", "T1 sequence": "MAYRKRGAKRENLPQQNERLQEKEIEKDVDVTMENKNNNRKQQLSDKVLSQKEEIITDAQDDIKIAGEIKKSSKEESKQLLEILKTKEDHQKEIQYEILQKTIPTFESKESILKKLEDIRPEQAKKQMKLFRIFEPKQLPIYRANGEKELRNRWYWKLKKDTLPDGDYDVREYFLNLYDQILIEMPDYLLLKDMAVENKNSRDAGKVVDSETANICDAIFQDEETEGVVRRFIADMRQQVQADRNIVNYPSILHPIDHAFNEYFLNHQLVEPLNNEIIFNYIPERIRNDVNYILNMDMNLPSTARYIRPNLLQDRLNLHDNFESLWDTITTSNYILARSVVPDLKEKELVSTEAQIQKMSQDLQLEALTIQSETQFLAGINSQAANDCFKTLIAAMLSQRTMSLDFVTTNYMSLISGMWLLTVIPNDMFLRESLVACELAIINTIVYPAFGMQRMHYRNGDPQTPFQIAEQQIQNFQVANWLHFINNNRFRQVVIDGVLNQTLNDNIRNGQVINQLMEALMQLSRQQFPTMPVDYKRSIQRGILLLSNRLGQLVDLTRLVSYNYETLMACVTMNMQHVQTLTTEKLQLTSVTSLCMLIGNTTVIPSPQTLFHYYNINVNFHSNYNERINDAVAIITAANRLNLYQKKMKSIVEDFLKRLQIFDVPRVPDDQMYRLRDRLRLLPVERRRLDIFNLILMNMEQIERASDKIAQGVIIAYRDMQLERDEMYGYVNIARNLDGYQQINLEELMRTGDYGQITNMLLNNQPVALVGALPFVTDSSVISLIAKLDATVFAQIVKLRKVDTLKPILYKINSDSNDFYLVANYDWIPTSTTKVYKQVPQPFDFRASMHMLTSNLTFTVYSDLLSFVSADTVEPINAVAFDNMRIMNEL", "assay": "co-expression in N. benthamiana, iodixanol gradient, cryo-electron microscopy", "data": [{"binder": "B1", "values": [{"measurement": "binding result", "result": "binds"}]}]}
